The target in experiment [1] is CD3εδ-Ig heterodimer (human) (UniProt P07766). In words: BIACORE (SPR); Affinity (nM). (SPR reads the build-up and loss of mass on a sensor chip optically.)
The target is the same in experiment [2]. Put plainly: ELISA, anti-CD3 mAb immobilized, fusion protein titrated.
The target of another experiment is CD3ε-Ig (human) (UniProt P07766). The experiment is described as above.
The target in experiment [3] is CD3εγ-Ig heterodimer (human) (UniProt P07766). The experiment is described as above.
CD3εγ-Ig heterodimer (human), sequence (P07766 23-126, chain 1 of 2): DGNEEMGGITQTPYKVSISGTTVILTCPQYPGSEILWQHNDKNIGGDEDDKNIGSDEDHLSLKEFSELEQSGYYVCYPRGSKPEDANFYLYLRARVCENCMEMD
CD3εγ-Ig heterodimer (human), sequence (P09693 23-116, chain 2 of 2, further chain): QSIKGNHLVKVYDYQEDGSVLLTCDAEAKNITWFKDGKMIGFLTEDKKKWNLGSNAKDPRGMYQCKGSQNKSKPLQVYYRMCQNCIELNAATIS
The next experiment deals with CD3γ-Ig (human) (UniProt P09693). The experiment is described as above.
CD3γ-Ig (human), sequence (P09693 23-116): as the sequence (P09693 23-116, chain 2 of 2, further chain) above
Another experiment has as its target anti-CD3 mAb G19-4. In words: ELISA: immobilized G19-4 captures titrated CD3-Ig; detection with anti-human IgG hinge-CH2-CH3 HRP conjugate. In general terms: An ELISA detects its analyte on a solid surface through an enzyme-linked reagent.
The target in a further experiment is T1, CD28huIg (UniProt P10747 19-152).
T1 construct: Immobilized on the BIACORE chip; construct not described; also called CD28Ig; CD28-Ig; not shown: human Ig part (huIg), not further described
In words: BIACORE (SPR), fusion protein immobilized, peptide in solution. Here is the method: BIACORE uses surface plasmon resonance (SPR) which occurs when surface plasmon waves are excited at a metal/liquid interface. Light is directed at, and reflected due to bimolecular interactions between analyte (in solution) and ligand (immobilized). CD3εδhuIg, CD3εεhuIg and CD28huIg were covalently immobilized on a carboxymethy dextran chip using EDC/NHS chemistry followed by blocking with ethanol amine. Peptides were dissolved in HBS buffer at pH 7.2 with or without 1% DMSO, and were allowed to pass over these fusion protein-immobilized surfaces. Non-specific binding was substrated by passing these peptides over a controlled surface prepared by immobilizing EDC/NHS alone followed by ethanolamine.

Experiment [4] deals with CD3εδ-Ig heterodimer (human) (UniProt P07766). In words: BIACORE (SPR), fusion protein immobilized, peptide in solution; printed as Binding Affinity.

Bridge positions count the residues as written; N and C are the ends. Ends that are not written are not given here.

This is an account of results in patent publication US20040253250A1 (XCYTE THERAPIES, published 2004).

One may read the Kd as the constant that tells how readily two partners part at equilibrium. Low values mean tighter binding, high ones weaker binding. The EC50 (read off the curve) is the midpoint of the concentration-response curve. High values mean weaker potency, low ones greater potency.

CD3εδ-Ig heterodimer (human), sequence (P07766 23-126, stated change not applied, chain 1 of 2): as the sequence (P07766 23-126, chain 1 of 2) above
CD3εδ-Ig heterodimer (human), sequence (P04234 22-105, stated change not applied, chain 2 of 2, further chain): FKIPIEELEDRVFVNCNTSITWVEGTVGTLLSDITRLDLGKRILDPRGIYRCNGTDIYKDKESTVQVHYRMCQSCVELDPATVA
CD3ε-Ig (human), sequence (P07766 23-126): as the sequence (P07766 23-126, chain 1 of 2) above

In experiment [1], anti-CD3 mAb G19-4 (antibody) displayed a Kd of 1.28 nM. Also, the saturating concentration of the fusion protein is 4 µg/mL in experiment [2], > 100 µg/mL with CD3ε-Ig (human), 20 µg/mL in experiment [3] and > 100 µg/mL with CD3γ-Ig (human).
anti-CD3 mAb 64.1 (antibody): the Kd in experiment [1] came to 7.58 nM.
In experiment [1], anti-CD3 mAb BC3 (antibody) displayed a Kd of 5.7 nM.
In the experiment with anti-CD3 mAb G19-4, “CD3εγ-Ig heterodimer (from UniProt P07766 23-126; P09693 23-116) (Fc fusion)” displayed an EC50 (read off the curve) of 0.8 µg/mL.
The molecule “CD3εδ-Ig heterodimer (from UniProt P07766 23-126; P04234 22-105) (Fc fusion)” had an EC50 (read off the curve) in the experiment with anti-CD3 mAb G19-4 of 0.1 µg/mL.

B1: YCYDDHTCY (SEQ ID NO:78) (peptide)
peptide: YCYDDHTCY
modifications: disulfide 2-8 (inferred)
Turning to B1, the binding result in the experiment with CD28huIg is “no binding”.

B2: YCYDDHQCY (SEQ ID NO:79) (peptide)
peptide: YCYDDHQCY
modifications: disulfide 2-8 (inferred)
As to B2, the binding result with CD28huIg is “no binding”.

B3: YCFDWKNCY (SEQ ID NO:80) (peptide)
peptide: YCFDWKNCY
modifications: disulfide 2-8 (inferred)
Consider B3, for which, in the experiment with CD28huIg, the binding result is “no binding”.

B4: … (SEQ ID NO:75) (peptide)
peptide: YCYDYDGCY
modifications: disulfide 2-8 (inferred)
B4: in experiment [4], the Kd turned out to be 10000 nM.

B5: … (SEQ ID NO:80) (peptide)
peptide: YCFDWKNCY
modifications: disulfide 2-8 (inferred)
For B5, in experiment [4], the Kd was 500 nM.

B6: YCYDYDGCY (SEQ ID NO:75) (peptide)
peptide: YCYDYDGCY
modifications: disulfide 2-8 (inferred)
Consider B6, for which, in the experiment with CD28huIg, the binding result is listed as “no binding”.

B7: YCYDYDYCY (SEQ ID NO:76) (peptide)
peptide: YCYDYDYCY
modifications: disulfide 2-8 (inferred)
In the case of B7, in the experiment with CD28huIg, the binding result was “no binding”.

B8: YCYDYDFCY (SEQ ID NO:77) (peptide)
peptide: YCYDYDFCY
modifications: disulfide 2-8 (inferred)
Regarding B8, in the experiment with CD28huIg, the binding result is “no binding”.
